{
  "source": "patent US11781164B2",
  "about": "“Demethylation of reticuline and derivatives thereof with fungal cytochrome P450” (priority 2017, dated 2023)",
  "molecules": {"B1": {"name": "Hs_CYP3A5: Cytochrome P450 3A5 (P20815), Homo sapiens (protein, UniProt P20815 1-502, looked up)", "Cytochrome P450 3A5": "MDLIPNLAVETWLLLAVSLVLLYLYGTRTHGLFKRLGIPGPTPLPLLGNVLSYRQGLWKFDTECYKKYGKMWGTYEGQLPVLAITDPDVIRTVLVKECYSVFTNRRSLGPVGFMKSAISLAEDEEWKRIRSLLSPTFTSGKLKEMFPIIAQYGDVLVRNLRREAEKGKPVTLKDIFGAYSMDVITGTSFGVNIDSLNNPQDPFVESTKKFLKFGFLDPLFLSIILFPFLTPVFEALNVSLFPKDTINFLSKSVNRMKKSRLNDKQKHRLDFLQLMIDSQNSKETESHKALSDLELAAQSIIFIFAGYETTSSVLSFTLYELATHPDVQQKLQKEIDAVLPNKAPPTYDAVVQMEYLDMVVNETLRLFPVAIRLERTCKKDVEINGVFIPKGSMVVIPTYALHHDPKYWTEPEEFRPERFSKKKDSIDPYIYTPFGTGPRNCIGMRFALMNMKLALIRVLQNFSFKPCKETQIPLKLDTQGLLQPEKPIVLKVDSRDGTLSGE"}, "B2": {"name": "Hs_CYP2C8: Cytochrome P450 2C8 (P10632), Homo sapiens (protein, UniProt P10632 1-490, looked up)", "Cytochrome P450 2C8": "MEPFVVLVLCLSFMLLFSLWRQSCRRRKLPPGPTPLPIIGNMLQIDVKDICKSFTNFSKVYGPVFTVYFGMNPIVVFHGYEAVKEALIDNGEEFSGRGNSPISQRITKGLGIISSNGKRWKEIRRFSLTTLRNFGMGKRSIEDRVQEEAHCLVEELRKTKASPCDPTFILGCAPCNVICSVVFQKRFDYKDQNFLTLMKRFNENFRILNSPWIQVCNNFPLLIDCFPGTHNKVLKNVALTRSYIREKVKEHQASLDVNNPRDFIDCFLIKMEQEKDNQKSEFNIENLVGTVADLFVAGTETTSTTLRYGLLLLLKHPEVTAKVQEEIDHVIGRHRSPCMQDRSHMPYTDAVVHEIQRYSDLVPTGVPHAVTTDTKFRNYLIPKGTTIMALLTSVLHDDKEFPNPNIFDPGHFLDKNGNFKKSDYFMPFSAGKRICAGEGLARMELFLFLTTILQNFNLKSVDDLKNLNTTAVTKGIVSLPPSYQICFIPV"}, "B3": {"name": "Lr_P450_co: P450 from Lichtheimia ramosa, codon optimized for S. cerevisiae (protein, listed as Lichtheimia ramosa)", "chain": "MTEIKEHIYRYRHYIGVAAAVALVCQQVYYRIFRIPKNLRHIPAIPYGQQLKALRSDEALTSRTKRLVFPLLSKCNGVYLNRMPFKWTIYVADPEIARAILFKPEFGHKTRSVTDSLDKNSSLFEFVGDDNIAIVNGHEWKEQRKIMNPAFHRATPVGMFGSLMPKVFRLVEEQPTLPALDLMQKLTLDALGKSVFGFEFGALDDPDSVWVKTYRQVFDSFTDVFSLVFPRLDPIYRYFSAKHREQYNAVYKLIDLLDGMADKKRSMLQDASNSDIKDVPDHEKDLLQLMLEAELRGEGSWTKRELRHNMAIFFVAGQDTTSHALTFCLYLLAKNQDIQKKAREEILNVFGDEPKDVFPTLEDCKKLNYLDMVIKESMRIYPPANDVLARDVNEDLNVKGVFIPKGSMVSVDIHALHHRPDLWHEPDKFNPDRFLPGGEHDSHVGVTYAPFSSGSRQCIALKFATMQQRVVLSMLLRKYEWELPKDSKHKDSIQFQIPFNIAPKDLELTFHKRY", "modifications": "codon-optimized"}, "B4": {"name": "P450_DN12791_co: P450_DN_12791 from T. piriforme, codon optimized for S. cerevisiae (pEV32227) (protein)", "chain": "MAILQNLVLQSDQRHLGVVTAAVFLSAYALYRHESKKELGNECPTVPYTNPMFGSTDEYRKNPAAFVEKWSAALGPVFRVHIFGRMQTVVSGRYVREVLFNDNFSFVEGIRTRFDLRLLTGIPNSHLNDKDVREVVVKSLTAQMKKYTPRAVHYLSVGLQEALGDLKDPRTLDNLFLTVQNMVAKASASIFVGEELCNNIELVDTFKHVTSDIGSEIRLDNTWLEFFKTINQIRMWYVGKHSPRVTKHRRQLIQAMAPEIDRRLQGLAGNDPSWTRPEDILQEIMENYPSPSTVPADIYTYYANWMIVLIFASVHTTTEHATIVLYRLLQQPELIDELLQEQKEALGQGTVFTGEVIRKLVKLDSVCRESLRIKNEYFGLPHRNMSHENISLSNGVVIKPGDNVMLNVWTNHHDSDLQKDVHGNHDKFEPFRYVNADRPATKIGDDYLIFGEGKHACPGRWFALQEIKTIVSVLIRDYTLTPCGPIVFPSGTSTGIPSGEVTIQRKSEV", "modifications": "codon-optimized; Thamnostylum piriforme"}, "B5": {"name": "Mc_S2JT25_co: codon-optimized cytochrome P450 S2JT25 from Mucor circinelloides (protein)", "chain": "MTLIASYNQTLLERVISVVRKNKTSYIGMAILCVVLQQVYASFTVPPKYLRRYPTVSFFEMMKSFYRKESVLNRNKRLVTPLTNAGHGFYVCRIPLDWTIYVTDPIAAKTLLLKTDNFPKSHAIFGALGESSPAVKFMGSENVAVSNGEMWKKQRKIMNPAFHRSQPVKLFGGVMPDLFALIDQDPEHVFVAPRMKSFALDALGLSAFGFDFQSLKGDPEGWTSKYNTVISTLFNPFINLFAKYDFLIKYISPERRRVIKATDEFNVMLSNLADKRRQEILDGEKKDMAENEKDLLTLMIEADIREGVETTTTELRHNMAIFFLAGHDTTANTLALCLYQLAKHKHVQKKARQEVLDILGDDPCDVTPTLEDLKKLNYVNMVIKENLRRNSPVDNLMARDTHQDIDLNGTFIPKGSKVTVNVASIHLNPKIWHDPESFIPERFEPGGEYDGHDGFTWIPFSNGSRQCLGLNFSLTEQRVVLCMLLKRYEIEIPKDSIHYNEIVFDKPFTFAPQSLELSFKKRY", "modifications": "codon-optimized; Mucor circinelloides"}},
  "key": {"[1]": {"system": "salutaridine", "experiment": "In vitro N-demethylation of salutaridine by mammalian cytochrome P450s in crude yeast cell lysates", "conditions": "crude cell extract with human CPR and cytochrome b5; 0.2 mM substrate, pH 7, 30° C., approximately 20 hours; compared to negative control strain without cytochrome P450s"}, "[2]": {"system": "oripavine", "experiment": "In vitro N-demethylation of oripavine by mammalian cytochrome P450s in crude yeast cell lysates", "conditions": "crude cell extract with human CPR and cytochrome b5; 0.2 mM substrate, pH 7, 30° C., approximately 20 hours; compared to negative control strain without cytochrome P450s"}, "[3]": {"system": "thebaine", "experiment": "In vitro N-demethylation of thebaine by mammalian cytochrome P450s in crude yeast cell lysates", "conditions": "crude cell extract with human CPR and cytochrome b5; 0.2 mM substrate, pH 7, 30° C., approximately 20 hours; compared to negative control strain without P450s"}, "[4]": {"system": "codeine", "experiment": "In vitro N-demethylation of codeine by mammalian cytochrome P450s in crude yeast cell lysates", "conditions": "crude cell extract with human CPR and cytochrome b5; 0.2 mM substrate, pH 7, 30° C., approximately 20 hours; compared to negative control strain without cytochrome P450s"}, "[5]": {"system": "Cunninghamella echinulata ATCC 9244", "experiment": "Fungal bioconversion of thebaine to northebaine by Cunninghamella echinulata cultures", "type": "cell-based", "conditions": "0.5 mg/ml thebaine added after 48 h of growth; eleven days after thebaine addition; supernatant, LC-MS", "experimental": "(§1) Cunninghamella echinulata ATCC 9244 was propagated on potato dextrose agar at room temperature. Mature cultures on plates (7-10 days) were used for the preparation of concentrated spore suspensions. Spores were harvested by flooding the lawn culture with a sterile solution containing 0.9% sodium chloride and 0.01% Tween 80 (10 ml/plate), scratching them from the hyphae with the aid of a sterile loop and filtering the suspension through sterile cotton to remove hyphal fragments. Thamnostylum piriforme ATCC 8992 was propagated on malt extract agar (CM0059) at room temperature and spore suspensions were prepared as indicated above. […]\n(§2) Media was inoculated with 0.25 ml of freshly-prepared spore suspensions. […] Eleven days after thebaine addition, supernatants were collected and analyzed by LC-MS. […] Thebaine and northebaine were monitored in the supernatants, reaching a conversion level of 25% on day 12 after substrate addition (FIG. 2)."}, "[6]": {"system": "Thamnostylum piriforme ATCC 8992", "experiment": "Fungal bioconversion of thebaine to northebaine by Thamnostylum piriforme cultures", "type": "cell-based", "experimental": "as §1, §2"}, "[7]": {"system": "salutaridinol", "experiment": "In vitro N-demethylation of salutaridinol by mammalian cytochrome P450s in crude yeast cell lysates", "conditions": "crude cell extract with human CPR and cytochrome b5; 0.2 mM substrate, pH 7, 30° C., approximately 20 hours; compared to negative control strain without cytochrome P450s"}, "[8]": {"system": "thebaine", "experiment": "Bioconversion of thebaine (N-demethylation to northebaine) by S. cerevisiae expressing cytochrome P450s and CPRs, LC-MS", "conditions": "0.5 mM thebaine"}, "[9]": {"system": "thebaine", "experiment": "Conversion of thebaine by demethylases heterologously expressed in Aspergillus nidulans", "conditions": "0.5 mM thebaine, Minimal Medium pH 7, 84 hours; supernatant, LC-MS"}, "[10]": {"system": "thebaine", "experiment": "In planta conversion of thebaine by transient expression of demethylases and CPRs in Nicotiana benthamiana leaves", "conditions": "co-expressed with CPR_DN10898_c0_g1_i1_co or Cel_CPR_co; leaves re-infiltrated with 0.5 mM thebaine after 4 days, measured 1 day after"}, "[11]": {"system": "oripavine", "experiment": "Bioconversion of oripavine (N-demethylation to nororipavine) by S. cerevisiae expressing cytochrome P450s and CPRs, LC-MS", "conditions": "0.5 mM oripavine"}, "[12]": {"conditions": "pH 7, co-expressed with Cel_CPR_co, 72 h"}, "[13]": {"conditions": "pH 7, 72 h, co-expressed with native or codon-optimized T. piriforme CPRs or Cel_CPR"}},
  "data": [
    {"molecule": "Hs_CYP3A4: Cytochrome P450 3A4 (P08684), Homo sapiens", "values": [
      {"measurement": "in vitro N-demethylation activity on salutaridine", "setting": "[1]", "value": "detected"},
      {"measurement": "in vitro N-demethylation activity on oripavine", "setting": "[2]", "value": "detected"},
      {"measurement": "in vitro N-demethylation activity on Thebaine", "setting": "[3]", "value": "detected"},
      {"measurement": "in vitro N-demethylation activity on codeine", "setting": "[4]", "value": "detected"}
    ]},
    {"molecule": "COC1=CC=C2[C@H]3Cc4ccc(OC)c5c4[C@@]2(CCN3C)[C@H]1O5", "note": "[Thebaine, thebaine]", "values": [
      {"measurement": "conversion of thebaine to northebaine", "setting": "[5]", "value": 6, "unit": "%"},
      {"measurement": "conversion of thebaine to northebaine", "setting": "[6]; 0.5 mg/ml thebaine added after 48 h of growth, eleven days after thebaine addition, supernatant, LC-MS", "value": 16, "unit": "%"},
      {"measurement": "conversion level of thebaine to northebaine", "setting": "[6]; new T. piriforme cultures, day 12 after substrate addition", "value": 25, "unit": "%"}
    ]},
    {"molecule": "B1", "values": [
      {"measurement": "in vitro N-demethylation activity on salutaridine", "setting": "[1]", "value": "detected"},
      {"measurement": "in vitro N-demethylation activity on oripavine", "setting": "[2]", "value": "detected"},
      {"measurement": "in vitro N-demethylation activity on Thebaine", "setting": "[3]", "value": "detected"},
      {"measurement": "in vitro N-demethylation activity on codeine", "setting": "[4]", "value": "detected"}
    ]},
    {"molecule": "B2", "values": [
      {"measurement": "in vitro N-demethylation activity on salutaridine", "setting": "[1]", "value": "detected"},
      {"measurement": "in vitro N-demethylation activity on oripavine", "setting": "[2]", "value": "detected"},
      {"measurement": "in vitro N-demethylation activity on salutaridinol", "setting": "[7]", "value": "detected"},
      {"measurement": "in vitro N-demethylation activity on Thebaine", "setting": "[3]", "value": "detected"},
      {"measurement": "in vitro N-demethylation activity on codeine", "setting": "[4]", "value": "detected"}
    ]},
    {"molecule": "B3", "values": [
      {"measurement": "activity towards thebaine, converting it to northebaine", "setting": "[8]; pH 7, 72 h, co-expressed with CPR_DN5866_c0_g1_i1_Cd9, CPR_DN10898_c0_g1_i1_1A or Cel_CPR_co (at least one of the tested CPRs)", "value": "performing the best conversion of thebaine into northebaine"},
      {"measurement": "northebaine titer", "setting": "[8]; [12]", "value": "more than 7 mg/L"},
      {"measurement": "northebaine titers higher compared to P450_DN15259_co", "setting": "[8]; [12]", "value": 2, "unit": "fold"},
      {"measurement": "northebaine production in Aspergillus nidulans vs vector control", "setting": "[9]", "value": "not apparent"},
      {"measurement": "northebaine levels in N. benthamiana leaves vs negative P19 control", "setting": "[10]", "value": "clear increase in northebaine"}
    ]},
    {"molecule": "B4", "values": [
      {"measurement": "thebaine N-demethylation activity", "setting": "[8]; pH 7, co-expressed with Cel_CPR_co, 72 h, no significant difference between codon optimized and non-codon optimized versions", "value": "lower"},
      {"measurement": "nororipavine titers", "setting": "[11]; [12]", "value": "highest nororipavine titers"},
      {"measurement": "northebaine production in Aspergillus nidulans vs vector control", "setting": "[9]", "value": "production of northebaine was achieved"}
    ]},
    {"molecule": "B5", "values": [
      {"measurement": "northebaine amount compared to Lr_P450_co", "setting": "[8]; [13]", "value": "yielded the highest northebaine amount"},
      {"measurement": "amount of nororipavine compared to Lr_P450_co", "setting": "[11]; [13]", "value": "resulted in the highest amount of nororipavine"},
      {"measurement": "northebaine production in Aspergillus nidulans vs vector control", "setting": "[9]", "value": "production of northebaine was achieved"},
      {"measurement": "northebaine levels in N. benthamiana leaves vs negative P19 control", "setting": "[10]", "value": "clear increase in northebaine"}
    ]}
  ]
}
